These results are taken from patent US20060015952A1, “Screening assays and methods of tumor treatment” (GENENTECH, INC., priority 2003, published 2006).

The test system of experiment [1] is TGF-beta extracellular domain (ECD). The experiment can be described thus: Binding ELISA of chimeric and humanized 2G7 versions. Conditions: for binding to TGF-beta of CDR mutants of hu2G7 Version 5 IgG: germline revertants / CDR H2 mutant. The procedure: DNA sequencing of the chimeric clone allowed identification of the CDR residues (Kabat et al., supra). Using oligonucleotide site-directed mutagenesis, all six of these CDR regions were introduced into a complete human framework (VL kappa subgroup I and VH subgroup III) contained on plasmid VX4 as previously described (Presta et al., Cancer Research, 57: 4593-4599 (1997)). Protein from the resultant “CDR-swap” was expressed and purified as above. Binding studies were performed to compare the two versions. Briefly, a NUNC MAXISORP™ plate was coated with 1 microgram per ml of TGF-beta extracellular domain (ECD; produced as described in WO 90/14357) in 50 mM of carbonate buffer, pH 9.6, overnight at 4° C., and then blocked with ELISA diluent (0.5% BSA, 0.05% POLYSORBATE™ 20, PBS) at room temperature for 1 hour. Serial dilutions of samples in ELISA diluent were incubated on the plates for 2 hours. After washing, bound Fab fragment was detected with biotinylated murine anti-human kappa antibody (ICN 634771) followed by streptavidin-conjugated horseradish peroxidase (Sigma) and using 3,3′,5,5′-tetramethyl benzidine (Kirkegaard & Perry Laboratories, Gaithersburg, Md.) as substrate. Absorbance was read at 450 nm.
(In general: In an ELISA, binding on a coated surface is turned into a signal by an enzyme label.)

The subject of a further experiment is TGF-beta. In words: Mouse messangial cell proliferation assay. It is filed as cell-based. The settings on record: antibody 20 μg/ml; TGF-beta at 1 ng/ml level; 48 hours. The procedure:
A mouse messangial cell proliferation assay was used to test a control antibody and several humanized antibodies (V5H.V5L, V5H.gIL2, H2NI.V5L, V5H.gIL1gIL2, and H2N1.gIL gIL2). The protocol is as follows:
On day 1: Mouse messangial cells were plated on a 96-well plate in Media (a 3:1 mixture of Dulbecco's modified Eagle's medium and Ham's F12 medium-95%-fetal bovine serum-5%-supplemented with 14 mM HEPES buffer) and grown overnight.
On day 2: TGF-beta with three different concentrations (100 ng, 10 ng and 1 ng) and five different types of humanized TGF antibody (20 μg/ml) were diluted in serum-free Media and added to the cells. A mouse TGF antibody was used as a control (2G7).
On day 4: After 48 hours incubation, 20 μl of reaction buffer (CELLTITER 96® AQUEOUS ONE SOLUTION REAGENT™ containing a tetrazolium compound 3-(4,5-dimethylthiazol-2-yl)-5-(3-carboxymethoxyphenyl)-2-(4-sulfophenyl)-2H-tetrazolium, inner salt, and an electron coupling reagent (phenazine ethosulfate) (Promega Inc. Cat number G3580)) was added to each well of the plate and allowed to incubate for 2 hours. The absorbance (OD) was measured at 490 nm.

Another experiment concerns TGF-beta1 through -beta3. The experiment can be described thus: 3T3 cell proliferation assay, neutralization of TGF-betas. Conditions: 3T3 cells stimulated with one of three TGF-betas. Type of experiment: cell-based, mouse. The procedure: Various humanized antibodies were tested for their activity in neutralizing various TGF-betas versus 2G7 using the 3T3 cell line from fibroblasts of disaggregated Swiss mouse embryos stimulated with one of three TGF-betas in vitro and then their proliferation was measured as activity.

B1: Version 5: humanized 2G7, ArgH71Ala, AlaH49Gly, PheH67Ala; SEQ ID Nos. 3 and 4 (antibody, V domains shown)
VL: DIQMTQSPSSLSASVGDRVTITCRASQSVLYSSNQKNYLAWYQQKPGKAPKLLIYWASTRESGVPSRFSGSGSGTDFTLTISSLQPEDFATYYCHQYLSSDTFGQGTKVEIKRTVA
VH: EVQLVESGGGLVQPGGSLRLSCAASGYAFTNYLIEWVRQAPGKGLEWVGVNNPGSGGSNYNEKFKGRATISADNSKNTLYLQMNSLRAEDTAVYYCARSGGFYFDYWGQGTLVTVSSASTKGPS
modifications: Sequence is synthesized
With B1, in experiment [1] (humanized versions (FR mutants)), the “binding to TGF-beta compared to chimeric 2G7 Fab fragment” value is recorded as “binding restored to that of the original chimeric 2G7 Fab fragment”. Moreover, the “blocking of cell inhibition induced by TGF-beta” value with TGF-beta is on record as “blocked cell inhibition similarly to the control”.

B2: V5H.g1L2: Same as Version 5 except the CDR L2 is reverted to human germline kappa locus sequence YASSLQS (antibody, V domains shown)
VH: EVQLVESGGGLVQPGGSLRLSCAASGYAFTNYLIEWVRQAPGKGLEWVGVNNPGSGGSNYNEKFKGRATISADNSKNTLYLQMNSLRAEDTAVYYCARSGGFYFDYWGQGTLVTVSS
VL: DIQMTQSPSSLSASVGDRVTITCRASQSVLYSSNQKNYLAWYQQKPGKAPKLLIYYASSLQSGVPSRFSGSGSGTDFTLTISSLQPEDFATYYCHQYLSSDTFGQGTKVEIK
In the case of B2, the “binding to TGF-beta of CDR mutants of hu2G7 Version 5 IgG” value in experiment [1] was “bound to TGF-beta as well as V5H.V5L”. Also, the “activity in neutralizing TGF-betas versus 2G7” value with TGF-beta1 through -beta3 is on record as “comparable activity, with V5H.gIL2 being the least effective”.

B3: V5H.g1L1glL2: Same as Version 5 except CDR L1 and CDR L2 reverted to human germline kappa locus sequences (antibody, V domains shown)
VH: EVQLVESGGGLVQPGGSLRLSCAASGYAFTNYLIEWVRQAPGKGLEWVGVNNPGSGGSNYNEKFKGRATISADNSKNTLYLQMNSLRAEDTAVYYCARSGGFYFDYWGQGTLVTVSS
VL: DIQMTQSPSSLSASVGDRVTITCRASQGISSYLAWYQQKPGKAPKLLIYYASSLQSGVPSRFSGSGSGTDFTLTISSLQPEDFATYYCHQYLSSDTFGQGTKVEIK
Consider B3, for which, in experiment [1], the “binding to TGF-beta of CDR mutants of hu2G7 Version 5 IgG” value is on record as “did not bind as well as the chimera”.
